Data reported in article PMC12103653 (2025).

Molecular target: Leukemia inhibitory factor (LIF), un-glycosylated recombinant protein (human, UniProt P15018 23-202)
Assay: SPR

Leukemia inhibitory factor (LIF), un-glycosylated recombinant protein, sequence (P15018 23-202): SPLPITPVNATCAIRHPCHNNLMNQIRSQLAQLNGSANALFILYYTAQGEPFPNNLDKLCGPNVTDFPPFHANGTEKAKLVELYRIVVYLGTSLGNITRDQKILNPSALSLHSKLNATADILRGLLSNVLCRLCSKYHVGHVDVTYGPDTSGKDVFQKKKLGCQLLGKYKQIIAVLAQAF

Kd: 6.31 µM
B1: LIF receptor LIFR (receptor)
chain: QKKGAPHDLKCVTNNLQVWNCSWKAPSGTGRGTDYEVCIENRSRSCYQLEKTSIKIPALSHGDYEITINSLHDFGSSTSKFTLNEQNVSLIPDTPEILNLSADFSTSTLYLKWNDRGSVFPHRSNVIWEIKVLRKESMELVKLVTHNTTLNGKDTLHHWSWASDMPLECAIHFVEIRCYIDNLHFSGLEEWSDWSPVKNISWIPDSQTKVFPQDKVILVGSDITFCCVSQEKVLSALIGHTNCPLIHLDGENVAIKIRNISVSASSGTNVVFTTEDNIFGTVIFAGYPPDTPQQLNCETHDLKEIICSWNPGRVTALVGPRATSYTLVESFSGKYVRLKRAEAPTNESYQLLFQMLPNQEIYNFTLNAHNPLGRSQSTILVNITEKVYPHTPTSFKVKDINSTAVKLSWHLPGNFAKINFLCEIEIKKSNSVQEQRNVTIKGVENSSYLVALDKLNPYTLYTFRIRCSTETFWKWSKWSNKKQHLTTEASPSKGPDTWREWSSDGKNLIIYWKPLPINEANGKILSYNVSCSSDEETQSLSEIPDPQHKAEIRLDKNDYIISVVAKNSVGSSPPSKIASMEIPNDDLKIEQVVGMGKGILLTWHYDPNMTCDYVIKWCNSSRSEPCLMDWRKVPSNSTETVIESDEFRPGIRYNFFLYGCRNQGYQLLRSMIGYIEELAPIVAPNFTVEDTSADSILVKWEDIPVEELRGFLRGYLFYFGKGERDTSKMRVLESGRSDIKVKNITDISQKTLRIADLQGKTSYHLVLRAYTDGGVGPEKSMYVVTKENS
